The data set concerns the molecule itself. As to the kind of experiment: SEC-MALS.

B1: DCP2_(C-tail), untagged (domain or fragment, human, UniProt Q8IU60 249-353, looked up)
chain: SDNGFSSTGSTPAKPTVEKLSRTKFRHSQQLFPDGSPGDQWVKHRQPLQQKPYNNHSEMSDLLKGKNQSMRGNGRKQYQDSPNQKKRTNGLQPAKQQNSLMKCEK
B1: the binding result is “binds”.

These data come from paper PMC9561381 (Nucleic Acids Research, 2022).
